Test results: article PMC6811539, “Minute-scale persistence of a GPCR conformation state triggered by non-cognate G protein interactions primes signaling” (Nature Communications, 2019)

Biological target: β2-AR of the β2-AR-Sp SPASM sensor (human) (UniProt P07550)

critical concentration (CC) of unlabeled peptide for enhanced isoproterenol-stimulated ΔFRET of the β2-AR-Sp sensor in native membranes (peptide 100 nM to 100 μM): 1.5 µM
Substance: Sp (Gαs C terminus peptide)
